In PMC12548442:

Columns and labels:
Experiment in all cases: NanoBRET
[1] = target: HaloTag-fused and NanoLuc-fused Gag-MA-G2A (NanoBRET pair); details: living cells; n = 6; mean ± SE; WMAA signal subtracted; parent: est. 100
[2] = target: HaloTag-fused and NanoLuc-fused Gag-MA-S9A (NanoBRET pair); details: living cells; n = 6; mean ± SE; WMAA signal subtracted; parent: est. 100; read off a plot
[3] = target: HaloTag-fused and NanoLuc-fused Gag-MA-S9F (NanoBRET pair); details: living cells; n = 6; mean ± SE; WMAA signal subtracted; parent: est. 100; read off a plot
[4] = target: HaloTag-fused and NanoLuc-fused Gag-MA-S9W (NanoBRET pair); details: living cells; n = 6; mean ± SE; WMAA signal subtracted; parent: est. 100; read off a plot
[5] = target: HaloTag-fused and NanoLuc-fused Gag-CA-WM184/185AA (NanoBRET pair); details: living cells; n = 6; mean ± SE; WMAA signal subtracted; parent: est. 100; read off a plot
[6] = target: HaloTag-fused and NanoLuc-fused Gag-MA-S9I (NanoBRET pair); details: living cells; n = 6; mean ± SE; WMAA signal subtracted; parent: est. 100; read off a plot

Substance: HaloTag-fused Gag and NanoLuc-fused Gag, wild type (NanoBRET pair) G2A
- percent of parent [1]: 0%

Substance: HaloTag-fused Gag and NanoLuc-fused Gag, wild type (NanoBRET pair) S9A
- percent of parent [2]: 72%

Substance: HaloTag-fused Gag and NanoLuc-fused Gag, wild type (NanoBRET pair) S9F
- percent of parent [3]: 8.6%

Substance: HaloTag-fused Gag and NanoLuc-fused Gag, wild type (NanoBRET pair) S9W
- percent of parent [4]: 42%

Substance: HaloTag-fused Gag and NanoLuc-fused Gag, wild type (NanoBRET pair) W184A; M185A
- percent of parent [5]: 0%

Substance: HaloTag-fused Gag and NanoLuc-fused Gag, wild type (NanoBRET pair) S9I
- percent of parent [6]: 68%
